Target: NF-kB p65 (RelA) homodimer (UniProt Q04206 Q04206:1-551)
Experiment: EMSA; competitive EMSA; 5 to 15-fold tighter to p65/p65 than p50 homodimer
Conditions: chain copies: 2 (stated homodimer)
Description: The example used to illustrate that when only one or two dithioate linkages were placed in a molecule, the inhibition/binding of the oligonucleotide to recombinant protein was similar to that of the unsubstituted aptamer illustrates is shown in FIG. 3—as the substitutions of dithiophosphate were increased, binding by the [S₂]-ODN oligonucleotide increased dramatically. For example, in a standard competitive binding assay, ³²P-IgκB promoter element ODN is incubated with recombinant p65 and varying amounts of XBY aptamer competitor. The relative binding ability of the unlabeled ODNs is determined by the concentration needed to effectively compete with the standard labeled ODN. XBY1 through 6 correspond to CK-14 aptamers with 1 through 6 dithiophsphate substitutions, respectively. The present inventors, according to an embodiment of this invention, developed an oligonucleotide containing six dithioate linkages on the two strands, termed XBY-6.
Competitive binding of XBY-6 to p65 homodimers is performed using EMSAs. XBY-6 concentrations are 1.95 (triangle), 3.89 (open circle), and 7.77 (closed circle).

NF-kB p65 (RelA) homodimer, sequence (Q04206 whole entry, one chain of several): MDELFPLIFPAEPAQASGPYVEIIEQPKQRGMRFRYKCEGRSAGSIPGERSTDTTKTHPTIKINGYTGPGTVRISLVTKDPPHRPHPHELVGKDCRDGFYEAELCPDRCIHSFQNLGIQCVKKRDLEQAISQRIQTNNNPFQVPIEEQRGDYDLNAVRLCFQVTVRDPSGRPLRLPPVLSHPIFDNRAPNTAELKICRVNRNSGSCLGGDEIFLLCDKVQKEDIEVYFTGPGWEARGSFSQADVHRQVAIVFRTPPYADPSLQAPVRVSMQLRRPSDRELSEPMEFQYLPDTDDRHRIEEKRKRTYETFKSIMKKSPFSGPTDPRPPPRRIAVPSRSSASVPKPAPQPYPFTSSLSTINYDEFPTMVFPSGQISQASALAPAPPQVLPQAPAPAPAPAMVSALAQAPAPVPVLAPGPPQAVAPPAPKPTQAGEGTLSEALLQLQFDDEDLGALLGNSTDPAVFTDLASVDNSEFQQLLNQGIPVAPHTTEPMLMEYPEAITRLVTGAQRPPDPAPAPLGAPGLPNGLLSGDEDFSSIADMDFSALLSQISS

B1: XBY-6 (dsDNA)
DNA 1: CCAGGAGATTCCAC
DNA 2: GTGGAATCTCCTGG
modifications: six phosphorodithioate linkages on the two strands, positions shown only in figures
  Kd: 1.44 nM

From patent publication US20030162190, “Phosphoromonothioate and phosphorodithioate oligonucleotide aptamer chip for functional proteomics” (published 2003)
